Measurements as given in patent US20220363757A1 (SYMPHOGEN A S, published 2022).

B1: Fab fragment of antibody 15572 (Fab, V domains shown, not shown: a dimerising Fc or GST)
VH: QLQLQESGPGLVKPSETLSLTCTVSGDSISSSSYYWGWIRQPPGKGLEWIGSIFYSGNTYYNPSLKSRVTISVDTSKNQFSLKLSSVTAADTAVYYCAREDDFLTDYYGAFDIWGQGTMVTVSS
VL: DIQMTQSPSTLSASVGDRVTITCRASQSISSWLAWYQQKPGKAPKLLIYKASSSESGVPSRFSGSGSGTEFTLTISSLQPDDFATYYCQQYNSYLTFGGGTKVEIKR
notes: monomeric Fab made by GingisKHAN digestion of the IgG1
B2: Fab fragment of antibody 15532 (Fab, V domains shown, not shown: a dimerising Fc or GST)
VH: QVQLQQWGAGLLRPSETLSLTCAVYGESFSGYYWNWIRQPPGKGLEWIGEINHSGSTNYNPSLKSRVTISVDTSKTQFSLKLSSVTAADTAVYYCARGWDLLDWNDYWNEYWGQGTLVTVSS
VL: EIVLTQSPATLSLSPGERATLSCRASQSVSSYLAWYQQKPGQAPRLLIYDASNRATGIPARFSGSGSGTDFTLTISSLEPEDFAVYYCQQRSNWPLTFGGGTKVEIKR
notes: as for B1
B3: Fab fragment of antibody 15431 (Fab, V domains shown, not shown: a dimerising Fc or GST)
VH: QVQLQQSGPGLVKPSQTLSLTCAISGDSVSSNSAAWNWIRQSPSRGLEWLGRTYYRSKWYNDYAVSVKSRITINPDTSKNQFSLQLNSVTPEDTAVYYCARDDDWNDFDYWGQGTLVTVSS
VL: B2 VL
notes: as for B1
B4: Fab fragment of antibody 15011 (Fab, V domains shown, not shown: a dimerising Fc or GST)
VH: EVQLLESGGGLVQPGGSLRLSCAASGFDFRSYAMMWVRQAPGKGLEWVGGINGEVGGSNTYYAPAVKGRATISRDNSKNTLYLQMNSLRAEDTAVYYCVKGAGACGICNDDIDAWGQGTLVTVSS
VL: SYELTQDPAVSVALGQTVRITCSGAGSYAGSYYYGWHQQKPGQAPVTVIYDNDKRPSNIPDRFSGSSSGNTASLTITGAQAEDEADYYCGSTNDNDDGGLFGSGTKVTVLG
notes: as for B1

Molecular target: T1, mouse LAG-3 ECD (mouse, UniProt Q61790 24-442)
T1 sequence: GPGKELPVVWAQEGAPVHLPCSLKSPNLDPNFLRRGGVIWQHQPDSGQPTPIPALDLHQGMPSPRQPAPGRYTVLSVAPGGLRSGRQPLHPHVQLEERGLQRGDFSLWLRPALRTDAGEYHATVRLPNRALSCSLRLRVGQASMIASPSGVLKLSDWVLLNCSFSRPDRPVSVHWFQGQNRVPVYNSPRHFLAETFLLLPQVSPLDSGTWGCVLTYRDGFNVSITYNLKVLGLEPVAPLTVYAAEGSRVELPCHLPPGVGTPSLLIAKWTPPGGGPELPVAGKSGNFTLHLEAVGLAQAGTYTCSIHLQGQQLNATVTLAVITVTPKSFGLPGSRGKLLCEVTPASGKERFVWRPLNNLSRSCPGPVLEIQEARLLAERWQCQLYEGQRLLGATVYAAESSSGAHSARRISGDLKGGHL
Assay: SPR, Fab over captured LAG-3 ECD

Binder	binding result	Kd	koff	kon
B1	no binding (tested: 1000 nM)	–	–	–
B2	no binding (tested: 1000 nM)	–	–	–
B3	no binding (tested: 1000 nM)	–	–	–
B4	–	33 nM	0.0023 s⁻¹	72000 M⁻¹ s⁻¹
